Measured values: patent US20140363427A1 (CRUCELL HOLLAND B V, published 2014)

Tests used:
[1] = biological target: T1, recombinant RSV F protein, strain A2, extracellular domain (Respiratory Syncytial Virus strain A2, UniProt P03420 26-524); assay: ELISA, purified Fab, estimated EC50
T1 construct: also called RSV F1 lysate (recombinant); RSV F lysate

[2] = biological target: native RSV F protein from the RSV A2 strain (Respiratory Syncytial Virus strain A2, UniProt P03420 26-574); assay: cell-based or functional assay

B1: Fab 14G3 (Fab, V domains shown)
VH: QVQLQESGPGLVKPSQTLSLTCTVSGASISSDNHYWSWIRQPPGKGLEWIASIYYTGGTNYNPSLKSRLALSIDTSGDQFSLKLSSVTAADTAVYYCVRGLFFITARPYWYFDLWGRGTLVAVSS
VL: DVVMTQTPLSLSVTPGEPASISCRSSQSLLDSDDGNTYLDWYLQKPGQSPQLLIYTLSYRASGVPDRFSGSGSGTDFTLKISRVEADDVGIYYCMQRMEFPFTFGQGTRLDIKR
With B1 the EC50 [1] was 8.2 nM, the “ED50, plaque reduction, RSV A2” value [2] was 3.4 nM and the “ED50, plaque reduction, RSV A2 (mass concentration)” value [2] was 0.172 mg/L.
